Results on 1 molecule are retold here after paper PMC13580404 (Molecular cell, 2026).

Broadly, the Kd is the free concentration of one partner at which half of the binding sites on the other are occupied at equilibrium, for simple one-to-one binding.

Experiment in all cases: ITC; RPN13 Pru in the cell (15.6, 20.57 or 16 μM), RPN2 (940–953) in the syringe; 25°C; 20 mM sodium phosphate, 50 mM NaCl, pH 6.0, with 10 mM βME (reducing) or without (non-reducing); one-site fit
What all share (conditions): both partners purified
(In general: Isothermal titration calorimetry measures the heat released or taken up as one component is titrated into another.)

For test [1], the target named is T1, oxidized RPN13 Pru (1–150) (UniProt Q16186 1-150, oxidized with 0.05% H2O2; the residues are not told).
T1 construct: RPN13 Pru domain, residues 1-150; also called oxi RPN13^Pru; oxi-RPN13^Pru; source: E. coli BL21(DE3) pLysS, purified; oxidized with 0.05% H2O2 on ice for 10 min; not shown: His6, N-terminal, cleaved

Test [2] deals with T2, oxidized RPN13 Pru (1–150) after incubation with TXNL1^Trx (UniProt Q16186 1-150, oxidized with 0.05% H2O2, then restored by a 3-fold molar excess of TXNL1 Trx; the residues are not told).
T2 construct: RPN13 Pru domain, residues 1-150; source: E. coli BL21(DE3) pLysS, purified; not shown: His6, N-terminal, cleaved

Test [3] concerns the target T3, RPN13 Pru (1–150), reduced (UniProt Q16186 1-150).
T3 construct: also called RPN13 (1–150); redu RPN13^Pru; source: E. coli BL21(DE3) pLysS, purified (Talon resin, PreScission cleavage, Superdex 75); not shown: His6, N-terminal, cleaved

T3 sequence (Q16186 1-150): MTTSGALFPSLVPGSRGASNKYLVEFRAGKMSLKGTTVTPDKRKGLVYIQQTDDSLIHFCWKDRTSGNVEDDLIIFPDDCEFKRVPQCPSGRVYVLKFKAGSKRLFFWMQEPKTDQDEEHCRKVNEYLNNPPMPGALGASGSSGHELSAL
T1 sequence (Q16186 1-150): as above
T2 sequence (Q16186 1-150): as above

B1: RPN2 (940–953) (peptide, UniProt Q99460 940-953, looked up)
chain: QEPEPPEPFEYIDD
notes: Eluted from the resin as GST-RPN2 (940–953); also called RPN2 peptide; GST-RPN2 (940–953); source: E. coli BL21(DE3) pLysS, purified (glutathione resin, eluted with reduced glutathione, Superdex 75)
Regarding B1, the Kd turned out to be 40 ± 15.3 nM in test [1], 18.9 ± 5.7 nM in test [2] and 12.4 ± 5.29 nM in test [3].
